Values of other authors as cited in PMC4819957.

Biological target: Pex3 (Homo sapiens) (UniProt P56589)
Chain of UniProt P56589 (P56589 whole entry): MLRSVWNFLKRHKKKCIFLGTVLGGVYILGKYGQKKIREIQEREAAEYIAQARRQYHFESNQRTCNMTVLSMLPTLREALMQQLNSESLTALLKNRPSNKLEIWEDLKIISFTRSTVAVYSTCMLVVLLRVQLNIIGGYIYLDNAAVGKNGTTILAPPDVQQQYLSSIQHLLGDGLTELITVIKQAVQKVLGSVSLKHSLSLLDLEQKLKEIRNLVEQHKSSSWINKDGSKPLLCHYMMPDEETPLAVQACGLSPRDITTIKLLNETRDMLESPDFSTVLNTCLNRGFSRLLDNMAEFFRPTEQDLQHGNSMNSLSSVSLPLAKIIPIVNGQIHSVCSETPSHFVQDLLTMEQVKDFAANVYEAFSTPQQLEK

Kd: < 10 nM
Substance: Pex19 (from UniProt P40855)
